Laboratory results as given in US10239925B2, “Peptides and combination of peptides for use in immunotherapy against ovarian cancer and other cancers” (IMMATICS BIOTECHNOLOGIES GMBH, priority 2015, dated 2019).

molecular target: HLA-A*02:01 (Homo sapiens, UniProt P04439, D140Y/D185E/D98H/E176V/E277Q/G131W/G231S/I119V/I121R/I166T/I218V/L300P/L318F/N151K/N90K/P208A/P217A/Q86G/Q94H/R138H/R169H/T345S); assay: MHC binding assay (UV-ligand exchange, anti-β2m ELISA, peptide exchange yield); details: binding to HLA-A*02:01
Procedure, shortened: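 Yield of stabilized complexes quantified via the β2m light chain in an ELISA (streptavidin capture, 100-fold diluted monomers, HRP anti-β2m 2 ug/ml at 37 °C, TMB, A450). The complexes come from UV-triggered replacement of a photocleavable ligand by the candidate peptide.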

Row | Substance | Peptide exchange (MHC class I binding score, peptide exchange yield)
1 | 538 (LLLAHIIAL; listed as Homo sapiens) [compound 538] | “++” (>20% = ++)
2 | 539 (ALFDAQAQV; listed as Homo sapiens) [compound 539] | “+++” (>50 = +++)
3 | 541 (SMLEPVPEL; listed as Homo sapiens) [compound 541] | “+++” (>50 = +++)
4 | 542 (RVWDISTVSSV; listed as Homo sapiens) [compound 542] | “+++” (>50 = +++)
5 | 543 (GLLPTPITQQASL; listed as Homo sapiens) [compound 543] | “+++” (>50 = +++)
6 | 544 (LLWDVPAPSL; listed as Homo sapiens) [compound 544] | “+++” (>50 = +++)
7 | 545 (LLADLLHNV; listed as Homo sapiens) [compound 545] | “+++” (>50 = +++)
8 | 546 (VMIAGKVAVV; listed as Homo sapiens) [compound 546] | “+++” (>50 = +++)
9 | 547 (TLDITPHTV; listed as Homo sapiens) [compound 547] | “+++” (>50 = +++)
10 | 548 (ALWENPESGEL; listed as Homo sapiens) [compound 548] | “++” (>20% = ++)
11 | 549 (AMLENASDIKL; listed as Homo sapiens) [compound 549] | “+++” (>50 = +++)
12 | 550 (FLYDEIEAEVNL; listed as Homo sapiens) [compound 550] | “+++” (>50 = +++)

The remaining lines, values ahead:

Row | Peptide exchange (MHC class I binding score, peptide exchange yield) | Substance
13 | “+++” (>50 = +++) | 551 (KLYESLLPFA; listed as Homo sapiens) [compound 551]
14 | “+++” (>50 = +++) | 552 (GLLDLPFRVGV; listed as Homo sapiens) [compound 552]
15 | “+++” (>50 = +++) | 553 (SLLNQDLHWSL; listed as Homo sapiens) [compound 553]
16 | “+++” (>50 = +++) | 554 (LLMPSSEDLLL; listed as Homo sapiens) [compound 554]
17 | “+++” (>50 = +++) | 555 (YVLEGLKSV; listed as Homo sapiens) [compound 555]
18 | “+++” (>50 = +++) | 556 (FLTDLEDLTL; listed as Homo sapiens) [compound 556]
19 | “+++” (>50 = +++) | 557 (KLYDDMIRL; listed as Homo sapiens) [compound 557]
20 | “+++” (>50 = +++) | 558 (GLLENIPRV; listed as Homo sapiens) [compound 558]
21 | “++” (>20% = ++) | 559 (VTVPPGPSL; listed as Homo sapiens) [compound 559]
22 | “+++” (>50 = +++) | 560 (ALWDIETGQQTTT; listed as Homo sapiens) [compound 560]
23 | “+++” (>50 = +++) | 561 (YLQLTQSEL; listed as Homo sapiens) [compound 561]
24 | “+++” (>50 = +++) | 562 (YLEELPEKLKL; listed as Homo sapiens) [compound 562]
25 | “+++” (>50 = +++) | 563 (WLLPYNGVTV; listed as Homo sapiens) [compound 563]
26 | “+++” (>50 = +++) | 564 (TVTNAVVTV; listed as Homo sapiens) [compound 564]
27 | “++” (>20% = ++) | 565 (ALQETPTSV; listed as Homo sapiens) [compound 565]
